Assay results: article PMC3127822

What was measured:
[1] = target: GST-tagged CC1 fragment from the dynactin subunit p150Glued; experiment: pull-down; 1 ug/ul GST-NudE or GST-CC1 with glutathione agarose 4B and pre-cleared whole brain lysate of P0 wild-type or Loa/Loa mice; phosphate-glutamate buffer (10 mM sodium phosphate, 100 mM sodium glutamate, pH 7.0, 1 mM MgSO4, 1 mM EDTA, 1 mM DTT, 0.2% NP-40), 4°C, 2 hours; western blot of supernatants and pellets
[2] = target: recombinant glutathione S-transferase (GST) NudE (UniProt Q9CZA6); experiment: as above
Sequence of UniProt Q9CZA6 (Q9CZA6 whole entry): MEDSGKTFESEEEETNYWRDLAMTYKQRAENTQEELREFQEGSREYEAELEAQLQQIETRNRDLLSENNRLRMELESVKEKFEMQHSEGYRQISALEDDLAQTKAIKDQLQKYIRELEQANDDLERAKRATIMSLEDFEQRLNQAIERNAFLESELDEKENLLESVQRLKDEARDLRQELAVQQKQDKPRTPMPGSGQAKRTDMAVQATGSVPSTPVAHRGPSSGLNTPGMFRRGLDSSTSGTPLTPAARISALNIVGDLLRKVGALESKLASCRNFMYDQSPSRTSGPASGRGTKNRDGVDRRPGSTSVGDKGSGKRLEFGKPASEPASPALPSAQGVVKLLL

| Substance | percent of heavy chain in the pellet [1] | percent of heavy chain in the NudE pellet [2] |
| --- | --- | --- |
| Loa/Loa mutant cytoplasmic dynein (from UniProt Q9JHU4 1-4644; O88485 1-628) (complex) | 40.7% | 57.7% |
| wild-type cytoplasmic dynein (from UniProt Q9JHU4 1-4644; O88485 1-628) (complex) | 45.3% | 66.2% |
